Test results reported in paper doi:10.1101/2025.11.26.690747.

Key:
[1] = molecular target: His-tagged PvBDP1 ankyrin domain (fragment 1-220) (P. vivax); assay: thermal shift assay
[2] = molecular target: Strep-tagged ACDC domain of PvAP2-I (residues 30-180) (P. vivax); assay: thermal shift assay

synthetic peptide corresponding to the α3 helix of ASAIR of PvAP2-I (residues 280-310)
Tm of the ankyrin domain with peptide at a 1:10 molar ratio (50.0°C alone) [1]: 50.7 °C | Tm of the ankyrin domain with peptide at a 1:40 molar ratio (50.0°C alone) [1]: 51.2 °C

synthetic peptide corresponding to PvBDP1 BAAS (residues 275-296)
Tm of the ACDC domain with peptide at a 1:10 molar ratio (61.1°C alone) [2]: 60.1 °C | Tm of the ACDC domain with peptide at a 1:40 molar ratio (61.1°C alone) [2]: 59.8 °C
